The results in this text go back to publication PMC5805711 (Scientific Reports, 2018).

As usually defined, the Kd is the concentration at which binding is half-saturated. Higher therefore signals weaker binding.

The target of assay [1] is T1, wild-type ubiquitin (Ub^WT) (UniProt P0CG48 1-76).
T1 construct: ubiquitin, the cut product of a ubiquitin precursor; last residue G76; Uniformly 15N-labelled for NMR; also called WT Ub; source: grown and purified using the standard Ub purification protocol; grown in 15N-enriched minimal media for NMR
The assay is described as follows: NMR titration; 15N-labeled Ub variant titrated with unlabeled UBA; amide CSPs in 1H-15N spectra, global fit to a single-site binding model; 23 °C, 20 mM sodium phosphate pH 6.8, 0.02% NaN3, 7% D2O. Conditions: both partners purified.

In assay [2] the target is T2, ubiquitin phosphorylated at serine-65 (pUb) (UniProt P0CG48 1-76, phosphoserine at 65).
T2 construct: ubiquitin, the cut product of a ubiquitin precursor, phosphorylated at S65; Uniformly 15N-labelled for NMR; In solution two conformers in slow, pH-dependent exchange: native-like pUb^nat and alternate pUb^alt; both are this one molecule; also called S65 pUb; phosphorylated Ub
Described as above. Conditions: both partners purified.

B1: ubiquitin-associated domain (UBA) of human ubiquilin-1/hPLIC1, V545Y (domain or fragment, UniProt Q9UMX0 545-586, looked up)
chain: YRFQQQLEQLSAMGFLNREANLQALIATGGDINAAIERLLGS
notes: UBA domain of human ubiquilin-1 (hPLIC1) with V545Y; V545Y was introduced to allow concentration determination by absorbance at 280 nm; Unlabelled in the titrations; also called ubiquilin-1 UBA
With B1, the Kd in assay [1] is 4.9 ± 1.2 µM; in assay [2], 8 ± 2.5 µM.
